# Molecular target: BLyS receptors on human B cells (human (endogenous in peripheral blood B cells))
row,"nuclear localization of NF-κB p52 in human B cells after 48 h with 100 ng/ml BLyS (Western blot of nuclear extracts, three B cell preparations), fold over unstimulated B cells [fold]",Substance
1,7.1,recombinant human FLAG-tagged BLyS (from UniProt Q9Y275 134-285) (ligand)
2,2.4,FLAG-tagged murine BLyS (from UniProt Q9WU72 127-309) (ligand)

# — article PMC2527131
